Data published in patent US20260285971 (published 2026).

How the values were obtained:
human GPRC5D [1] = biological target: T1, human GPRC5D (human); assay: FACS NCI-H929
T1 chain: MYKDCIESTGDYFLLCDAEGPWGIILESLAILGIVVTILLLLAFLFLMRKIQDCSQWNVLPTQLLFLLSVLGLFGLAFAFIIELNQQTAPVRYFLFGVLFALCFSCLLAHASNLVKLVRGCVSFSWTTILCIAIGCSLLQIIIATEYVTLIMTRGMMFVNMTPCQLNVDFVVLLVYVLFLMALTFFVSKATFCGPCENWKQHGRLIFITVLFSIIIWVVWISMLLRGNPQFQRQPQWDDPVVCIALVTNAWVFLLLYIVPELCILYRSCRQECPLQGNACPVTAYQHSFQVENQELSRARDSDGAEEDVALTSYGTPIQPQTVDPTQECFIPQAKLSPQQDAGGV

human GPRC5D [2] = biological target: T1, human GPRC5D; assay: FACS RPMI-8226
human GPRC5D [3] = biological target: T1, human GPRC5D; assay: FACS molp-8
human GPRC5D [4] = biological target: T1, human GPRC5D; assay: FACS CHOK1-human GPRC5D
human GPRC5D [5] = biological target: T1, human GPRC5D; assay: FACS NCI-H929
human GPRC5D [6] = biological target: T1, human GPRC5D; assay: FACS molp-8
human GPRC5D [7] = biological target: T1, human GPRC5D; assay: ELISA
human GPRC5D [8] = biological target: T1, human GPRC5D; assay: FACS RPMI-8226
human GPRC5D [9] = biological target: T1, human GPRC5D; assay: FACS RPMI-8226
human GPRC5D [10] = biological target: T1, human GPRC5D; assay: ELISA
human GPRC5D [11] = biological target: T1, human GPRC5D; assay: FACS molp-8
human GPRC5D [12] = biological target: T1, human GPRC5D; assay: FACS molp-8
human GPRC5D [13] = biological target: T1, human GPRC5D; assay: ELISA
human GPRC5D [14] = biological target: T1, human GPRC5D; assay: FACS RPMI-8226
human GPRC5D [15] = biological target: T1, human GPRC5D; assay: FACS NCI-H929
human GPRC5D [16] = biological target: T1, human GPRC5D; assay: FACS molp-8
human GPRC5D [17] = biological target: T1, human GPRC5D; assay: FACS RPMI-8226
human GPRC5D [18] = biological target: T1, human GPRC5D; assay: ELISA
human GPRC5D [19] = biological target: T1, human GPRC5D; assay: FACS NCI-H929
human GPRC5D [20] = biological target: T1, human GPRC5D; assay: FACS NCI-H929

Binder | EC50 (human GPRC5D [1]) | EC50 (human GPRC5D [2]) | EC50 (human GPRC5D [3]) | EC50 (human GPRC5D [4]) | EC50 (human GPRC5D [5]) | EC50 (human GPRC5D [6]) | EC50 (human GPRC5D [7]) | EC50 (human GPRC5D [8]) | further results
Lab05-huFc (antibody, V domains shown) VH: QVQLVESGGGLVQPGGSLRLSCAASGILVSAYVMAWYRQPPGKQRDLVARLSTDGRTTYADSVKGRFTISKDNAKSTLYLQMNTLKSEDTAVYYCYAERSRGHWGQGTQVTVSS | 111 pM | 0.0316 µM | 61.6 pM | 0.000279 µM | – | – | – | – | –
HAB05-H2 (antibody, V domains shown) VH: EVQLVESGGGLVQPGGSLRLSCAASGILVSAYVMAWYRQAPGKQRVLVSRLSTDGRTTYADSVKGRFTISKDNAKNTLYLQMNSLRAEDTAVYYCYAERSRGHWGQGTMVTVSS | 202 pM | 0.000141 µM | 83.9 pM | 0.000514 µM | – | – | – | – | –
HAB05-H3 (antibody, V domains shown) VH: EVQLVESGGGLVQPGGSLRLSCAASGILVSAYVMAWYRQAPGKQRVLVSRLSTDGRTTYADSVKGRFTISKDNAKSTLYLQMNSLRAEDTAVYYCYAERSRGHWGQGTMVTVSS | 86.1 pM | 0.00012 µM | 43.3 pM | 0.000249 µM | – | – | – | – | –
MCARH109-scFv-huFc (antibody, V domains shown) VH: QVQLVESGGGLVHPGGSLRLSCAASGFTFRSHSMNWVRQAPGKGLEWVSSISSDSTYTYYADSVKGRFTISRDNAKNSLYLQMNSLRAEDTAVYYCARSGGQWKYYDYWGQGTLVTVSS VL: SSELTQDPAVSVALGQTVRITCQGDSLRSYYASWYQQKPGQAPVLVIYGKNNRPSGIPDRFSGSSSGNTASLTITGAQAEDEADYYCNSRDSSGNPPVVFGGGTKLTVL | 2450 pM | – | 3230 pM | 0.000286 µM | – | – | – | – | –
HAB06-H5 (designed binder) EVQLVESGGGLVQPGGSLRLSCAASGFTFSSAWMYWFRQAPGKGLEWVSHIDPRGGSTYYADSVKGRFTISRDNAKNTLYLQMNSLRAEDTAVYYCAKDLRGLGRGQGTQVTVSS | 380 pM | 0.000387 µM | 178 pM | 0.000241 µM | – | – | – | – | –
HAB06-H1 (designed binder) EVQLVESGGGLVQPGGSLRLSCAASGFTFSSAWMYWFRQAPGKGLEWVSHIDPRGGSTYYADSVKGRFTISRDNSKNTLYLQMNSLRAEDTAVYYCAKDLRGLGRGQGTMVTVSS | 166 pM | 0.000406 µM | 140 pM | 0.000324 µM | – | – | – | – | –
Lab06-huFc (designed binder) QVQLVESGGGLVQPGGSLRLSCTASGFTFSSAWMYWFRQAPGKGLEWVSHIDPRGGSTYYADSVKGRFTISRDNAKNTLYLQMRSLKSEDTAVYYCAKDLRGLGRGQGTQVTVSS | 273 pM | 0.000261 µM | 132 pM | 0.00022 µM | – | – | – | – | –
Lab01-huFc (antibody, V domains shown) VH: EVQLQASGGGSVQAGGSRRLSCVASGYAGGIAYMAWFRQTPGKGREGVALIATSGTTSYANSVKGRFTIFRDGADNTVYLEMSSLKPEDTATYYCAAKSRLGWPGLETSQFKYWGQGTQVTVSS | – | – | – | – | 0.000653 µM | 0.000625 µM | 18.2 pM | 0.00208 µM | –
5F11-hIgG1 (antibody, V domains shown) VH: EVQLVESGGGLVQPGRSLKLSCAASGFSFSNYGMAWVRQAATKGLEWVASISTGGGNTYYRDSVKGRFIVSRDNAKNTQYLQMDSLRSEDTATYYCTRHDRGGLYWGQGVMVTVSS VL: DIVMTQAPLSVSVTPGESASISCRSSKSLLHSNGITYVYWYFQKPGKSPQVLIYRMSNLASGVPDRFSGSGSETDFTLKISRVEAEDVGIYHCGQLLENPYTFGAGTELELK | – | – | – | – | 0.00305 µM | 0.00292 µM | 49.8 pM | 0.0265 µM | EC50 (human GPRC5D [9]): 0.0187 µM; EC50 (human GPRC5D [10]): 29.5 pM; EC50 (human GPRC5D [11]): 0.00564 µM; EC50 (human GPRC5D [12]): 0.00368 µM; EC50 (human GPRC5D [13]): 37.1 pM; EC50 (human GPRC5D [14]): 0.0121 µM; EC50 (human GPRC5D [15]): 0.00269 µM; EC50 (human GPRC5D [16]): 0.0126 µM; EC50 (human GPRC5D [17]): 0.00707 µM; EC50 (human GPRC5D [18]): 65.9 pM; EC50 (human GPRC5D [19]): 0.00196 µM; EC50 (human GPRC5D [20]): 0.0029 µM
HAB01-H1 (antibody, V domains shown) VH: EVQLVESGGGLVQPGGSLRLSCAASGYAGGIAYMAWFRQAPGKGREGVANIATSGTTYYVDSVKGRFTISRDGAKNSLYLQMNSLRAEDTAVYYCAAKSRLGWPGLETSQFKYWGQGTMVTVSS | – | – | – | – | 0.00163 µM | 0.0033 µM | 23 pM | 0.103 µM | –
HAB01-H3 (antibody, V domains shown) VH: EVQLVESGGGLVQPGGSLRLSCAASGYAGGIAYMAWFRQAPGKGREGVALIATSGTTSYVDSVKGRFTISRDGAKNSLYLQMNSLRAEDTAVYYCAAKSRLGWPGLETSQFKYWGQGTMVTVSS | – | – | – | – | 0.00102 µM | 0.00137 µM | 25.9 pM | 0.036 µM | –
HAB01-H7 (antibody, V domains shown) VH: EVQLVESGGGLVQPGGSLRLSCAASGYAGGIAYMAWFRQAPGKGREGVALIATSGTTSYADSVKGRFTISRDGAKNSVYLQMNSLRAEDTAVYYCAAKSRLGWPGLETSQFKYWGQGTMVTVSS | – | – | – | – | 0.000916 µM | 0.00076 µM | 26.4 pM | 0.0037 µM | –
HAB01-H6 (antibody, V domains shown) VH: EVQLVASGGGLVQPGGSLRLSCAASGYAGGIAYMAWFRQAPGKGREGVALIATSGTTSYVDSVKGRFTISRDGAKNSVYLQMNSLRAEDTAVYYCAAKSRLGWPGLETSQFKYWGQGTMVTVSS | – | – | – | – | 0.000666 µM | 0.000755 µM | 17.8 pM | 0.0257 µM | –
HAB01-H8 (antibody, V domains shown) VH: EVQLVESGGGLVQPGGSLRLSCAASGYAGGIAYMAWFRQAPGKGREGVALIATSGTTSYVDSVKGRFTISRDGADNSVYLQMNSLRAEDTAVYYCAAKSRLGWPGLETSQFKYWGQGTMVTVSS | – | – | – | – | 0.00141 µM | 0.00124 µM | 33.6 pM | 0.00177 µM | –
HAB03-H5 (antibody, V domains shown) VH: EVQLVESGGGLVQPGGSLRLSCAASGDTANCIGWFRQAPGKGREGVAAIYTGLGNTYYANSAKGRFTISQDNAKNSVYLQMNSLRAEDTAVYYCAAGGILGRFCSRYFGQGTMVTVSS | – | – | – | – | – | – | – | – | EC50 (human GPRC5D [9]): 0.0415 µM; EC50 (human GPRC5D [12]): 0.000738 µM; EC50 (human GPRC5D [18]): 35.3 pM; EC50 (human GPRC5D [20]): 0.000892 µM
JNJ7564-hIgG1 (antibody, V domains shown) VH: QVQLVQSGAEVKKPGASVKVSCKASGYSFTGYTMNWVRQAPGQGLEWMGLINPYNSDTNYAQKLQGRVTMTTDTSTSTAYMELRSLRSDDTAVYYCARVALRVALDYWGQGTLVTVSS VL: DIQMTQSPSSLSASVGDRVTITCKASQNVATHVGWYQQKPGKAPKRLIYSASYRYSGVPSRFSGSGSGTEFTLTISNLQPEDFATYYCQQYNRYPYTFGQGTKLEIK | – | – | – | – | 0.0179 µM | 0.0269 µM | 37.9 pM | ~5.46 µM | EC50 (human GPRC5D [9]): ~1360 µM; EC50 (human GPRC5D [10]): 28 pM; EC50 (human GPRC5D [11]): 0.0413 µM; EC50 (human GPRC5D [12]): 0.0344 µM; EC50 (human GPRC5D [13]): 21.1 pM; EC50 (human GPRC5D [14]): ~635 µM; EC50 (human GPRC5D [15]): 0.00988 µM; EC50 (human GPRC5D [16]): 0.0459 µM; EC50 (human GPRC5D [17]): 0.0734 µM; EC50 (human GPRC5D [18]): 55.9 pM; EC50 (human GPRC5D [19]): 0.00697 µM; EC50 (human GPRC5D [20]): 0.0256 µM
